Test results from US20180148485A1 (Pieris, published 2018).
Like-named read-outs stand apart in the source and are kept apart here. Blank lines part the entries; values can stand above or below the binder they belong to.

How the values were obtained:
[1] = target: T1, recombinant human CD137-Fc fusion protein (#838-4B-100, R&D Systems) (human, UniProt Q07011 24-186); assay: SPR, CD137-Fc captured by anti-human Fc antibody on CM5 chip, 1:1 model
T1 construct: also called Fc-fusion of human CD137; not shown: Fc part of the bought fusion protein, not described
Protocol: Binding affinities of the CD137-binding lipocalin mutein and the bispecific polypeptides of SEQ ID NO: 46 and SEQ ID NO: 47 to recombinant human CD137-Fc fusion protein (#838-4B-100, R&D Systems) were determined by Surface Plasmon Resonance using a Biacore T200 instrument (GE Healthcare) in analogy to Example 6. Prior to the SPR affinity assay, a CM5 sensor chip was derivatized with an anti-human Fc antibody using the Human Antibody Capture Kit (GE Healthcare # BR-1008-39) according to the manufacturer's instructions.
Four different concentrations (1000 nM, 200 nM, 40 nM and 8 nM) of the bispecific polypeptides were prepared in running buffer (10 mM HEPES, 150 mM NaCl, 0.05% v/v Surfactant P20, 3 mM EDTA, pH 7.4 (GE Healthcare)) and applied to the chip surface. Applying a flow rate of 30 μL/min, the sample contact time was 180 s and dissociation time was 600 s. All measurements were performed at 25° C. […] Prior to the protein measurements three regeneration cycles were performed for conditioning purposes. Data were evaluated with Biacore T200 Evaluation software (V 2.0). Double referencing was used and the 1:1 Binding model was used to fit the raw data.

[2] = target: T1, recombinant human CD137-Fc fusion …; assay: ELISA, CD137-Fc coated, as described in Example 3
Excerpt: The data was fitted with a 1:1 binding model with EC50 value and the maximum signal as free parameters, and a slope that was fixed to unity.

[3] = target: T1, recombinant human CD137-Fc fusion …; assay: ELISA, CD137-Fc coated, as described in Example 3; remark: listed apart in the source
[4] = target: T1, recombinant human CD137-Fc fusion …; assay: SPR, biotinylated CD137-Fc captured on CAP chip, in analogy to Example 6
Protocol: Biotinlated CD137-Fc was immobilized on sensor chip and binding of the fusion polypeptides and lipocalin mutein was analyzed at different concentrations.

[5] = target: T2, recombinant human GPC3 (R&D Systems #2119-GP-050/CF) (human, UniProt P51654 25-559); assay: SPR (Biacore T200), biotinylated GPC3 captured on CAP chip, 1:1 model, apparent affinity
T2 construct: also called Glypican-3; biotinylated human GPC3
T2 sequence (P51654 25-559 limits assumed): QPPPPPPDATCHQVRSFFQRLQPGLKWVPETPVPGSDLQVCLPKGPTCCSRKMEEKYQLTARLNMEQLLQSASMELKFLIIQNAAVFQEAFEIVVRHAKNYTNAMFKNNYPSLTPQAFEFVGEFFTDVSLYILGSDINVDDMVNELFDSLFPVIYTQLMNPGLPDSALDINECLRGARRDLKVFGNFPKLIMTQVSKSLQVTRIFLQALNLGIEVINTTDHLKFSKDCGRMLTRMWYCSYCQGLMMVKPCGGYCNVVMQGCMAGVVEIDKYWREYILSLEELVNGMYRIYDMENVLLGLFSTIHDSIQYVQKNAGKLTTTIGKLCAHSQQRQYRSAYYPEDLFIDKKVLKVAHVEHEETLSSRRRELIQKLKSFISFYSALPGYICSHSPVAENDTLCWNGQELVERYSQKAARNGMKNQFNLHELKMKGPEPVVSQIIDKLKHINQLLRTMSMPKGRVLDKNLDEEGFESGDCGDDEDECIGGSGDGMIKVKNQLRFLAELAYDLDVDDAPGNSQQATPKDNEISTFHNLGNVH
Protocol: In the SPR affinity assay, biotinylated GPC3 was captured on a sensor chip (“CAP chip”) using the Biotin CAPture Kit (GE Healthcare): sensor Chip CAP is pre-immobilized with an ssDNA oligo. Undiluted Biotin CAPture Reagent (streptavidin conjugated with the complementary ss-DNA oligo) was applied at a flow rate of 2 μL/min for 300 s. For analysis of the lipocalin mutein, biotinylated GPC3 at a concentration of 1 μg/mL was used and 0.25 μg/mL of biotinylated GPC3 for the fusions proteins. The biotinylated GPC3 was applied for 300 s at a flow rate of 5 μL/min. GPC3 was biotinylated by incubation with EZ-Link® NHS-PEG4-Biotin (5-fold molar excess (Thermo Scientific)) during two hours at room temperature. The excess of non-reacted biotin reagent was removed by loading the reaction mixture onto a Zeba™ Spin Desalting Plate (Thermo Scientific). The reference channel was loaded with Biotin CAPture Reagent only.
Applying a flow rate of 30 μL/min, the sample contact time was 180 s and dissociation time was 1200 s. All measurements were performed at 25° C. […] Prior to the protein measurements three regeneration cycles were performed for conditioning purposes. Data were evaluated with Biacore T200 Evaluation software (V 2.0). Double referencing was used and the 1:1 Binding model was used to fit the raw data.

[6] = target: T2, recombinant human GPC3 (R&D Systems …); assay: ELISA, GPC3 coated, anti-NGAL-HRP detection
Excerpt: GPC3 was coated on a microtiter plate and the tested molecules were titrated. Bound molecules were detected via an HRP-labeled anti-human NGAL-specific antibody as described in Example 12. The data was fitted with a 1:1 binding model with EC50 value and the maximum signal as free parameters, and a slope that was fixed to unity.

[7] = target: T2, recombinant human GPC3 (R&D Systems …); assay: ELISA, GPC3 coated, anti-NGAL-HRP detection; remark: listed apart in the source
Excerpt: GPC3 was coated on a microtiter plate and the tested molecules were titrated. […] The data was fitted with a 1:1 binding model with EC50 value and the maximum signal as free parameters, and a slope that was fixed to unity.

[8] = target: T2, recombinant human GPC3 (R&D Systems …); assay: SPR, biotinylated GPC3 captured on CAP chip, 1:1 model, apparent affinity
Protocol: Biotinlated GPC3 was immobilized on a sensor chip and binding of the fusion polypeptides and lipocalin mutein was analyzed at different concentrations.

[9] = target: T2, recombinant human GPC3 (R&D Systems …); assay: ELISA, GPC3 coated, anti-NGAL-HRP detection; remark: listed apart in the source
Protocol: The target was dissolved in PBS (1 μg/mL) and coated overnight on microtiter plates at 4° C. The plate was washed after each incubation step with […] PBS supplemented with 0.1% (v/v) Tween 20 (PBS-T) five times. The plates were blocked with 2% BSA (w/v) in PBS-T for 1 h at room temperature and subsequently washed. Different concentrations of the lipocalin mutein (SEQ ID NO: 10) or the fusion polypeptides were added to the wells and incubated for 1 h at room temperature, followed by a wash step. Bound fusion protein or lipocalin mutein was detected after incubation with 1:1000 diluted anti-human NGAL antibody conjugated to HRP in PBS-T supplemented with 2% (w/v) BSA (PBS-TB). After an additional wash step, fluorogenic HRP substrate (QuantaBlu, Thermo) was added to each well and the fluorescence intensity was detected using a fluorescence microplate reader.
The result of the experiment is depicted in FIG. 2, together with the fit curves resulting from a 1:1 binding sigmoidal fit, where the EC50 value and the maximum signal were free parameters, and the slope was fixed to unity.

Kd [1]: 0.0023 nM
EC50 [2]: 0.43 nM
EC50 [3]: 0.28 nM
Kd [4]: 2.3 nM
B1: CD137-binding lipocalin mutein of SEQ ID NO: 26 (designed binder)
chain: QDSTSDLIPAPPLSKVPLQQNFQDNQFHGKWYVVGQAGNIRLREDKDPIKMMATIYELKEDKSYDVTMVKFDDKKCMYDIWTFVPGSQPGEFTLGKIKSFPGHTSSLVRVVSTNYNQHAMVFFKFVFQNREEFYITLYGRTKELTSELKENFIRFSKSLGLPENHIVFPVPIDQCIDG

Kd [5]: 0.012 nM
EC50 [6]: 0.55 nM
EC50 [7]: 0.32 nM
Kd [8]: 0.033 nM
EC50 [9]: 0.55 nM
B2: GPC3-binding lipocalin mutein of SEQ ID NO: 10 (designed binder)
chain: QDSTSDLIPAPPLSKVPLQQNFQDNQFQGKWYVVGRAGNVGLREDKDPPKMWATIYELKEDKSYDVTNVRFARKKCTYSIGTFVPGSQPGEFTLGQIKSEPGGTANLVRVVSTNYNQHAMVFFKEVYQNREIFFIILYGRTKELTSELKENFIRFSKSLGLPENHIVFPVPIDQCIDG
notes: hNGAL-based lipocalin mutein; also called GPC3 lipocalin mutein
